Reference: patent US20160263250A1 (GENERAL HOSPITAL, published 2016)

Assays:
[1] = biological target: Exendin-4K12-VT680; test: in vivo injection into NOD MIP-GFP mice; intravital imaging and fluorescence histology
[2] = biological target: Exendin-4 (UniProt P26349 48-86); test: blocking on MIN6 cells: Exendin-4 (0-500 nM), then Exendin-4X12-VT750 (10 nM); competitor Exendin-4X12-VT750
[3] = biological target: Exendin-4X12-VT750; test: cell-labeling assay, fluorescence plate reader, MIN6 cells

Measured: binding result

B1: GLP-1R naturally expressed on mouse insulinoma-derived MIN6 cells and mouse pancreatic beta cells (receptor)
chain: GPRPQGTTVSLSETVQKWREYRRQCQRFLTEAPLLATGLFCNRTFDDYACWPDGPPGSFVNVSCPWYLPWASSVLQGHVYRFCTAEGLWLHKDNSSLPWRDLSECEESKRGERNFPEEQLLSLYIIYTVGYALSFSALVIASAILVGFRHLHCTRNYIHLNLFASFILRALSVFIKDAALKWMYSTAAQQHQWDGLLSYQDSLGCRLVFLLMQYCVAANYYWLLVEGVYLYTLLAFSVFSEQRIFKLYLSIGWGVPLLFVIPWGIVKYLYEDEGCWTRNSNMNYWLIIRLPILFAIGVNFLIFIRVICIVVSKLKANLMCKTDIKCRLAKSTLTLIPLLGTHEVIFAFVMDEHARGTLRFIKLFTELSFTSFQGLMVAILYCFVNNEVQMEFRKCWERWRLEHLNIQRDCSMKPLKCPTSSVSSGATVGSSVYAATCQSSYS
notes: whole, on cells; The species follows from the cell line and the animals; also called GLP-1R (MIN6); GLP-1 receptors in vivo (mouse)
binds: all assays above
